Measurements published in the Human Domainome abundance scans (Beltran et al. 2025).
± gives the uncertainty stated by the source.

B1: Ventral anterior homeobox 1, residues 102 to 157; numbered along this chain, Q5SQQ9 (parent)
chain: RTRTSFTAEQLYRLEMEFQRCQYVVGRERTELARQLNLSETQVKVWFQNRRTKQKK
B2: Glucocorticoid receptor, residues 419 to 494; numbered along this chain, P04150 (parent)
chain: KLCLVCSDEASGCHYGVLTCGSCKVFFKRAVEGQHNYLCAGRNDCIIDKIRRKNCPACRYRKCLQAGMNLEARKTK

Variants of: B1
Experiment: abundance fitness (aPCA) (normalised: wild type 0, dead -1); higher = more abundant; growth selection in yeast, the domain comes from the species named
Conditions: Homo sapiens

Abundance fitness: each site, then its substitutions
T7: L -0.704 ± 0.15; C -0.335 ± 0.18; S -0.158 ± 0.14; E -0.279 ± 0.13; D -0.043 ± 0.18; G -0.311 ± 0.09; H -0.407 ± 0.28
Y12: A 0.044 ± 0.099; T 0.018 ± 0.14; I -0.188 ± 0.3; M 0.102 ± 0.15; F -0.13 ± 0.21; V -0.085 ± 0.096; P -0.967 ± 0.21; W 0.001 ± 0.15; C -0.176 ± 0.2; L -0.086 ± 0.12; S 0.069 ± 0.11

Variants of: B2
Experiment: as above
Conditions: Homo sapiens

Abundance fitness: each site, then its substitutions
T75: N 0.014 ± 0.074; G 0.044 ± 0.042; K 0.007 ± 0.076; P -0.005 ± 0.048; L 0.054 ± 0.043; H -0.038 ± 0.078; M -0.004 ± 0.062; C -0.075 ± 0.061; S 0.008 ± 0.043; E 0.032 ± 0.063; V -0.064 ± 0.048; Q -0.099 ± 0.063; I -0.044 ± 0.072; D 0.023 ± 0.069; W 0.047 ± 0.052; A 0.029 ± 0.044; F 0.064 ± 0.064; R -0.01 ± 0.04
R73: N -0.133 ± 0.084; L -0.04 ± 0.033; C -0.019 ± 0.052; F -0.059 ± 0.059; S 0.003 ± 0.037; E -0.015 ± 0.042; T 0.024 ± 0.051; I -0.066 ± 0.07; P -0.007 ± 0.048; G -0.021 ± 0.032; M 0.012 ± 0.05; D -0.125 ± 0.076; K 0.004 ± 0.052; Q -0.061 ± 0.058; Y -0.062 ± 0.073; H -0.109 ± 0.065
K76: F 0.006 ± 0.11; D 0.02 ± 0.068; H -0.096 ± 0.27; C 0.132 ± 0.14; Y -0.206 ± 0.17; E 0.105 ± 0.059; L -0.001 ± 0.048; M -0.023 ± 0.1; A 0.028 ± 0.051; W -0.137 ± 0.083; G 0.018 ± 0.052; P 0.004 ± 0.073; N 0.045 ± 0.095; S 0.099 ± 0.052; I -0.277 ± 0.28; V -0.001 ± 0.047
L70: E -0.021 ± 0.049; H 0.01 ± 0.073; A -0.058 ± 0.036; Y 0.023 ± 0.077; T -0.03 ± 0.045; G -0.068 ± 0.033; W -0.033 ± 0.04; Q -0.02 ± 0.053; K -0.029 ± 0.054; I -0.018 ± 0.083; V 0.021 ± 0.032; S 0.052 ± 0.039; F -0.08 ± 0.065; C -0.029 ± 0.053; M 0.052 ± 0.054; N -0.011 ± 0.076; D -0.033 ± 0.072; R 0.023 ± 0.03
K74: Q 0.063 ± 0.057; P -0.049 ± 0.056; V -0.008 ± 0.044; A -0.033 ± 0.049; W -0.017 ± 0.05; F 0.047 ± 0.077; H 0.039 ± 0.16; S -0.047 ± 0.046; L 0.077 ± 0.038; M 0.009 ± 0.054; G -0.006 ± 0.037; Y 0.043 ± 0.15; N -0.01 ± 0.094; D 0.19 ± 0.073; T -0.034 ± 0.054; E 0.091 ± 0.053; I 0.027 ± 0.08; C -0.032 ± 0.06; R 0.054 ± 0.037
E71: W -0.106 ± 0.04; L -0.104 ± 0.038; A -0.135 ± 0.041; T -0.076 ± 0.053; H -0.09 ± 0.061; R -0.095 ± 0.033; V -0.01 ± 0.038; N -0.017 ± 0.065; D 0.008 ± 0.048; S -0.016 ± 0.041; G -0.009 ± 0.032; K -0.077 ± 0.056; Y -0.131 ± 0.081; I -0.016 ± 0.065; Q -0.051 ± 0.063; F -0.072 ± 0.059; C -0.052 ± 0.049; P -0.038 ± 0.05
M68: P -0.928 ± 0.14; T -0.595 ± 0.12; Y -0.215 ± 0.085; V -0.472 ± 0.055; W -0.846 ± 0.1; S -0.771 ± 0.092; Q -0.999 ± 0.18; R -0.719 ± 0.059; N -0.62 ± 0.45
N69: A 0.006 ± 0.042; G -0.047 ± 0.039; S 0.039 ± 0.044; I -0.089 ± 0.081; M -0.022 ± 0.048; K 0.001 ± 0.048; P -0.252 ± 0.051; W -0.061 ± 0.043; Y -0.105 ± 0.066; H 0.028 ± 0.067; E -0.02 ± 0.043; D -0.033 ± 0.07; R 0.01 ± 0.033; V -0.049 ± 0.036; L -0.11 ± 0.036; F -0.023 ± 0.062; T 0.011 ± 0.048; Q -0.071 ± 0.053
A72: F -0.285 ± 0.081; Q 0.008 ± 0.043; S -0.067 ± 0.042; G -0.023 ± 0.032; M 0.005 ± 0.053; P -0.077 ± 0.055; H -0.044 ± 0.061; K 0.049 ± 0.045; I 0.002 ± 0.062; N -0.037 ± 0.072; R -0.054 ± 0.032; L -0.015 ± 0.036; E 0.047 ± 0.041; D -0.017 ± 0.06; Y 0.011 ± 0.061; W -0.023 ± 0.039; V -0.043 ± 0.035
